Source: paper PMC7184779

Molecular target: SADS-CoV papain-like protease 2 (PLP2) domain of nsp3, wild type (SADS-CoV)

Q: How did the kcat/Km of hydrolysis of Ub-AMC (AMC fluorescence, Michaelis-Menten fit) turn out when “ubiquitin-AMC (from UniProt P0CG48 1-76) (natural protein)” was run?
A: 62700 M⁻¹ s⁻¹
